Reference: publication PMC9482650, “Quantitative fragmentomics allow affinity mapping of interactomes” (Nature Communications, 2022)
One block for each binder: values may come before it.

Legend:
Assay in all cases: holdup assay
Parameters in all cases: key: below the threshold = too weak to quantify, mostly under pKd 3.1 to 4
Conditions in all cases: plain residues with an end cap or a label only (N-terminal biotin on a linker: ado-ado)
FRMPD2_2, Q68DX3 = biological target: FRMPD2_2, Q68DX3
PCLO, Q9Y6V0 = biological target: T1, PCLO, Q9Y6V0
T1 sequence (Q9Y6V0 4491-4600, limits assumed, looked up): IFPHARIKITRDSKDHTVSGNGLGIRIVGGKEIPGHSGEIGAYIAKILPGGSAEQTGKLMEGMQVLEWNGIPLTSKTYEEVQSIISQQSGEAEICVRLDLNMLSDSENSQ

TJP1_3, Q07157 = biological target: TJP1_3, Q07157
Chain of TJP1_3, Q07157 (Q07157 416-512): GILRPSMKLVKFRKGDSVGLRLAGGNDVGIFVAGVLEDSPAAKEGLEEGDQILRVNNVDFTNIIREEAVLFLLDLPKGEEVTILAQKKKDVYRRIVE

IL16_1, Q14005 = biological target: IL16_1, Q14005
Chain of IL16_1, Q14005 (Q14005 210-306): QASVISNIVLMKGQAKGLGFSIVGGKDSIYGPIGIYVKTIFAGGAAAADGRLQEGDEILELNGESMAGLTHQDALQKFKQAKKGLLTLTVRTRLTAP

MPP2, Q14168 = biological target: T2, MPP2, Q14168
T2 sequence (Q14168 180-250, limits assumed, looked up): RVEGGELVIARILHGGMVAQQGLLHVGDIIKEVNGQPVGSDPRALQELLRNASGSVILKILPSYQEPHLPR

TJP3_3, O95049 = biological target: T3, TJP3_3, O95049
T3 sequence (O95049 375-456, limits assumed, looked up): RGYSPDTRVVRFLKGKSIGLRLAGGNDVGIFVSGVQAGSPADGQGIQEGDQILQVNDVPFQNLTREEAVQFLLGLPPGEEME

NHERF3_1, Q5T2W1 = biological target: T4, NHERF3_1, Q5T2W1
T4 sequence (Q5T2W1 4-100, limits assumed, looked up): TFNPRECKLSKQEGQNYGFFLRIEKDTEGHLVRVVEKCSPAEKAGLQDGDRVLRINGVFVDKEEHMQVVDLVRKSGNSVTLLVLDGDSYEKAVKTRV

NHERF3_3, Q5T2W1 = biological target: T5, NHERF3_3, Q5T2W1
T5 sequence (Q5T2W1 238-333, limits assumed, looked up): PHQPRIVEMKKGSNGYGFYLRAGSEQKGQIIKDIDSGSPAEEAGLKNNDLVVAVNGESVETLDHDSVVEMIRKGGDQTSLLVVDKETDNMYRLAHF

PTPN3, P26045 = biological target: PTPN3, P26045
Chain of PTPN3, P26045 (P26045 505-587): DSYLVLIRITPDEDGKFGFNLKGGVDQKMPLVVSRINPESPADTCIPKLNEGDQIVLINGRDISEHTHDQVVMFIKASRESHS

PICK1, Q9NRD5 = biological target: PICK1, Q9NRD5
Chain of PICK1, Q9NRD5 (Q9NRD5 17-115): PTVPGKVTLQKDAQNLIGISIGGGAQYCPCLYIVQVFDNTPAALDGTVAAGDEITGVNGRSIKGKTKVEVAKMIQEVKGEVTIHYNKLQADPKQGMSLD

GRIP1_5, Q9Y3R0 = biological target: T6, GRIP1_5, Q9Y3R0
T6 sequence (Q9Y3R0 568-668, limits assumed, looked up): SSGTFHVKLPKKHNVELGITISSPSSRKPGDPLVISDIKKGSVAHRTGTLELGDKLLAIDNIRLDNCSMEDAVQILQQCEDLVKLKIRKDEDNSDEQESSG

DLG4_3, P78352 = biological target: DLG4_3, P78352
Chain of DLG4_3, P78352 (P78352 306-403): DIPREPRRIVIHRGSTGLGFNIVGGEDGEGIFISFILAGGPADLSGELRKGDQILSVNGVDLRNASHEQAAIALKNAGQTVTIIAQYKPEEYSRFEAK

Inadl_8, Q8NI35 = biological target: Inadl_8, Q8NI35
Chain of Inadl_8, Q8NI35 (Q8NI35 1425-1530): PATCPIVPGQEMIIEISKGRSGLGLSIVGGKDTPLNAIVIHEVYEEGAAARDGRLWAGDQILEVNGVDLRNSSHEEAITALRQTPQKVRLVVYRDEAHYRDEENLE

LNX2_2, Q8N448 = biological target: T7, LNX2_2, Q8N448
T7 sequence (Q8N448 334-432, limits assumed, looked up): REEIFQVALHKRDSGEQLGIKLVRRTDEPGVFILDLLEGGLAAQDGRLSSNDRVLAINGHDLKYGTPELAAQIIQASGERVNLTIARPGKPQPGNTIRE

Inadl_6, Q8NI35 = biological target: Inadl_6, Q8NI35
Chain of Inadl_6, Q8NI35 (Q8NI35 1058-1167): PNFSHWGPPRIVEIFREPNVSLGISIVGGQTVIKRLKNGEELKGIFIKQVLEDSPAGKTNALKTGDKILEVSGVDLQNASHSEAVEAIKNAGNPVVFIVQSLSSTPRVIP

DFNB31_2, Q9P202 = biological target: T8, DFNB31_2, Q9P202
T8 sequence (Q9P202 274-371, limits assumed, looked up): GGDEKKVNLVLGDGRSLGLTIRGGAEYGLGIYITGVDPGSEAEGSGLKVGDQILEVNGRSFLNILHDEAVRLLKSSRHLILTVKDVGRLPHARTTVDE

NOS1, P29475 = biological target: NOS1, P29475
Chain of NOS1, P29475 (P29475 9-101): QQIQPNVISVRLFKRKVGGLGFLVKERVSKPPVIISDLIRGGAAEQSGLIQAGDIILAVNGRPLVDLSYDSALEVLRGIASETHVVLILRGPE

GRID2IP_1, A4D2P6 = biological target: GRID2IP_1, A4D2P6
Chain of GRID2IP_1, A4D2P6 (A4D2P6 1-87): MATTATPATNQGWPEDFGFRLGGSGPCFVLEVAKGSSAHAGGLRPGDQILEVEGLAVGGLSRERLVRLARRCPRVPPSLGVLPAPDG

TIAM2, Q8IVF5 = biological target: T9, TIAM2, Q8IVF5
T9 sequence (Q8IVF5 885-986, limits assumed, looked up): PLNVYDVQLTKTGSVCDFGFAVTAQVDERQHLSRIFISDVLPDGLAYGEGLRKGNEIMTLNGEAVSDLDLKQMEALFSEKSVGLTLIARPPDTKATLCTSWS

DLG1_3, Q12959 = biological target: DLG1_3, Q12959
Chain of DLG1_3, Q12959 (Q12959 457-571): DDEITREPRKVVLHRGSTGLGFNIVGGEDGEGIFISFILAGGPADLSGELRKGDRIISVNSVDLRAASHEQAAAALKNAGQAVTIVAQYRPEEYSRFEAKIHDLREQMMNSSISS

SHANK1, Q9Y566 = biological target: T10, SHANK1, Q9Y566
T10 sequence (Q9Y566 658-767, limits assumed, looked up): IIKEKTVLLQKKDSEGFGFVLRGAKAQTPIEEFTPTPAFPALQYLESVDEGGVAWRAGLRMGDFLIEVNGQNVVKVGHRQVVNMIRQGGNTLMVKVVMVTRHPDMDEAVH

DLG4_1, P78352 = biological target: DLG4_1, P78352
Chain of DLG4_1, P78352 (P78352 62-152): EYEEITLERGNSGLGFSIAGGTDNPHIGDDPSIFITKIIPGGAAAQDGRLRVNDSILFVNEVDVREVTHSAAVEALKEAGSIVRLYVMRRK

DLG3_3, Q92796 = biological target: T11, DLG3_3, Q92796
T11 sequence (Q92796 374-475, limits assumed, looked up): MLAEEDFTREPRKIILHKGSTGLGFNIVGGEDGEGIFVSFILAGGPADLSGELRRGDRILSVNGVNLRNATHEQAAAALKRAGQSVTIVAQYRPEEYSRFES

NHERF4_1, Q86UT5-2 = biological target: NHERF4_1, Q86UT5-2
Chain of NHERF4_1, Q86UT5-2 (Q86UT5 other isoform, or with tags, fused parts or gaps): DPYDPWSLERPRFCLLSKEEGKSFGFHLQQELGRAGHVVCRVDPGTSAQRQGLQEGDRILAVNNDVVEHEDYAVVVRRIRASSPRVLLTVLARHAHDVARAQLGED

MAGI2_2, Q86UL8 = biological target: MAGI2_2, Q86UL8
Chain of MAGI2_2, Q86UL8 (Q86UL8 410-522): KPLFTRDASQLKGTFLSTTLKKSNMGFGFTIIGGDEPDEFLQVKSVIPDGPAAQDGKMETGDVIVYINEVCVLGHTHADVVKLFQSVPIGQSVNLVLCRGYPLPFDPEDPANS

GORASP1, Q9BQQ3 = biological target: GORASP1, Q9BQQ3
Chain of GORASP1, Q9BQQ3 (Q9BQQ3 1-208): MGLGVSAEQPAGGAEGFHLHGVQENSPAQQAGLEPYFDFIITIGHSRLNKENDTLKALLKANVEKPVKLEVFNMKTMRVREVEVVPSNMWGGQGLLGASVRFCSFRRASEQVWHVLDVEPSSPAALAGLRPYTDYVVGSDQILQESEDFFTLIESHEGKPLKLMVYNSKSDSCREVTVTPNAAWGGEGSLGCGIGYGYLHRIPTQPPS

MAGI2_6, Q86UL8 = biological target: MAGI2_6, Q86UL8
Chain of MAGI2_6, Q86UL8 (Q86UL8 1141-1229): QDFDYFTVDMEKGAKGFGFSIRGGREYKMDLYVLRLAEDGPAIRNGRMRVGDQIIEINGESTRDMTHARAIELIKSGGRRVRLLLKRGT

Chain of FRMPD2_2, Q68DX3 (Q68DX3 944-1038): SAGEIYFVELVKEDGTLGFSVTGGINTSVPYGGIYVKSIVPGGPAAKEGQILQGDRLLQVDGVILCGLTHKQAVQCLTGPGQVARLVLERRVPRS

B1: EPHB3, P54753 (peptide)
chain: QMNQTLPVQV
pKd (FRMPD2_2, Q68DX3): below the threshold
pKd (PCLO, Q9Y6V0): below the threshold
pKd (TJP1_3, Q07157): below the threshold
pKd (IL16_1, Q14005): below the threshold
pKd (MPP2, Q14168): below the threshold
pKd (TJP3_3, O95049): below the threshold
pKd (NHERF3_1, Q5T2W1): 3.48
pKd (NHERF3_3, Q5T2W1): below the threshold
pKd (PTPN3, P26045): 3.97
pKd (PICK1, Q9NRD5): 4.35
pKd (GRIP1_5, Q9Y3R0): below the threshold
pKd (DLG4_3, P78352): below the threshold
pKd (Inadl_8, Q8NI35): 3.55
pKd (LNX2_2, Q8N448): 5.12
pKd (Inadl_6, Q8NI35): below the threshold
pKd (DFNB31_2, Q9P202): below the threshold
pKd (NOS1, P29475): 4.18
pKd (GRID2IP_1, A4D2P6): below the threshold
pKd (TIAM2, Q8IVF5): below the threshold
pKd (DLG1_3, Q12959): 3.76
pKd (SHANK1, Q9Y566): 3.54
pKd (DLG4_1, P78352): below the threshold
pKd (DLG3_3, Q92796): 3.56
pKd (NHERF4_1, Q86UT5-2): below the threshold
pKd (MAGI2_2, Q86UL8): below the threshold
pKd (GORASP1, Q9BQQ3): 3.58
pKd (MAGI2_6, Q86UL8): below the threshold

B5: JAG1, P78504 (peptide)
chain: QSLNRMEYIV
pKd (FRMPD2_2, Q68DX3): below the threshold
pKd (PCLO, Q9Y6V0): below the threshold
pKd (TJP1_3, Q07157): below the threshold
pKd (IL16_1, Q14005): 3.91
pKd (MPP2, Q14168): below the threshold
pKd (TJP3_3, O95049): below the threshold
pKd (NHERF3_1, Q5T2W1): below the threshold
pKd (NHERF3_3, Q5T2W1): below the threshold
pKd (PTPN3, P26045): below the threshold
pKd (PICK1, Q9NRD5): below the threshold
pKd (GRIP1_5, Q9Y3R0): below the threshold
pKd (DLG4_3, P78352): below the threshold
pKd (Inadl_8, Q8NI35): below the threshold
pKd (LNX2_2, Q8N448): 5.4
pKd (Inadl_6, Q8NI35): below the threshold
pKd (DFNB31_2, Q9P202): below the threshold
pKd (NOS1, P29475): 3.54
pKd (GRID2IP_1, A4D2P6): below the threshold
pKd (TIAM2, Q8IVF5): 4.18
pKd (DLG1_3, Q12959): below the threshold
pKd (SHANK1, Q9Y566): below the threshold
pKd (DLG4_1, P78352): below the threshold
pKd (DLG3_3, Q92796): below the threshold
pKd (NHERF4_1, Q86UT5-2): below the threshold
pKd (MAGI2_2, Q86UL8): 3.91
pKd (GORASP1, Q9BQQ3): 4.71
pKd (MAGI2_6, Q86UL8): below the threshold

Other lines, results leading:

pKd (FRMPD2_2, Q68DX3): below the threshold
pKd (PCLO, Q9Y6V0): below the threshold
pKd (TJP1_3, Q07157): below the threshold
pKd (IL16_1, Q14005): below the threshold
pKd (MPP2, Q14168): below the threshold
pKd (TJP3_3, O95049): below the threshold
pKd (NHERF3_1, Q5T2W1): below the threshold
pKd (NHERF3_3, Q5T2W1): below the threshold
pKd (PTPN3, P26045): below the threshold
pKd (PICK1, Q9NRD5): below the threshold
pKd (GRIP1_5, Q9Y3R0): below the threshold
pKd (DLG4_3, P78352): below the threshold
pKd (Inadl_8, Q8NI35): below the threshold
pKd (LNX2_2, Q8N448): 4.76
pKd (Inadl_6, Q8NI35): below the threshold
pKd (DFNB31_2, Q9P202): below the threshold
pKd (NOS1, P29475): 3.64
pKd (GRID2IP_1, A4D2P6): below the threshold
pKd (TIAM2, Q8IVF5): 3.9
pKd (DLG1_3, Q12959): below the threshold
pKd (SHANK1, Q9Y566): below the threshold
pKd (DLG4_1, P78352): below the threshold
pKd (DLG3_3, Q92796): below the threshold
pKd (NHERF4_1, Q86UT5-2): below the threshold
pKd (MAGI2_2, Q86UL8): below the threshold
pKd (GORASP1, Q9BQQ3): 4.12
pKd (MAGI2_6, Q86UL8): below the threshold
B2: ZNF831, Q5JPB2 (peptide)
chain: DDEDRLVIEI

pKd (FRMPD2_2, Q68DX3): below the threshold
pKd (PCLO, Q9Y6V0): below the threshold
pKd (TJP1_3, Q07157): below the threshold
pKd (IL16_1, Q14005): below the threshold
pKd (MPP2, Q14168): below the threshold
pKd (TJP3_3, O95049): below the threshold
pKd (NHERF3_1, Q5T2W1): 3.48
pKd (NHERF3_3, Q5T2W1): below the threshold
pKd (PTPN3, P26045): 4.04
pKd (PICK1, Q9NRD5): below the threshold
pKd (GRIP1_5, Q9Y3R0): below the threshold
pKd (DLG4_3, P78352): below the threshold
pKd (Inadl_8, Q8NI35): below the threshold
pKd (LNX2_2, Q8N448): below the threshold
pKd (Inadl_6, Q8NI35): below the threshold
pKd (DFNB31_2, Q9P202): below the threshold
pKd (NOS1, P29475): below the threshold
pKd (GRID2IP_1, A4D2P6): below the threshold
pKd (TIAM2, Q8IVF5): below the threshold
pKd (DLG1_3, Q12959): below the threshold
pKd (SHANK1, Q9Y566): below the threshold
pKd (DLG4_1, P78352): below the threshold
pKd (DLG3_3, Q92796): below the threshold
pKd (NHERF4_1, Q86UT5-2): 4.2
pKd (MAGI2_2, Q86UL8): below the threshold
pKd (GORASP1, Q9BQQ3): below the threshold
pKd (MAGI2_6, Q86UL8): below the threshold
B3: MYOZ1, Q9NP98 (peptide)
chain: IPLDGETEEL

pKd (FRMPD2_2, Q68DX3): 3.57
pKd (PCLO, Q9Y6V0): below the threshold
pKd (TJP1_3, Q07157): below the threshold
pKd (IL16_1, Q14005): 3.62
pKd (MPP2, Q14168): below the threshold
pKd (TJP3_3, O95049): below the threshold
pKd (NHERF3_1, Q5T2W1): 5.38
pKd (NHERF3_3, Q5T2W1): below the threshold
pKd (PTPN3, P26045): 5
pKd (PICK1, Q9NRD5): 4.18
pKd (GRIP1_5, Q9Y3R0): below the threshold
pKd (DLG4_3, P78352): 4.11
pKd (Inadl_8, Q8NI35): below the threshold
pKd (LNX2_2, Q8N448): below the threshold
pKd (Inadl_6, Q8NI35): 4.31
pKd (DFNB31_2, Q9P202): below the threshold
pKd (NOS1, P29475): 3.84
pKd (GRID2IP_1, A4D2P6): below the threshold
pKd (TIAM2, Q8IVF5): below the threshold
pKd (DLG1_3, Q12959): 4.1
pKd (SHANK1, Q9Y566): 4.64
pKd (DLG4_1, P78352): 3.98
pKd (DLG3_3, Q92796): 4.2
pKd (NHERF4_1, Q86UT5-2): 4.51
pKd (MAGI2_2, Q86UL8): 3.66
pKd (GORASP1, Q9BQQ3): below the threshold
pKd (MAGI2_6, Q86UL8): 4.16
B4: TMEM151B, Q8IW70 (peptide)
chain: RHGSCVETSL
